Laboratory results published in patent publication US6867011B1, “Synthetic bioepitope compounds which can be used as standards in the biological assays of Troponin I” (Bio-Rad Pasteur, priority 1996, dated 2005).

How the values were obtained:
[1] = Tests of stability of compound 10 solutions stored at +4° C., assayed periodically with the troponin I kit; type: physicochemical; conditions: buffer solutions stored at +4° C.
Protocol: A compound according to the invention (compound 10) was diluted in water (C=2 mg/ml). From this “stock” solution, four “working” solutions S1, S2, S3 and S4 are obtained.
To carry out the various dilutions, a 0.1 M sodium succinate buffer solution (pH=6) containing Kathon (0.2%), Re gilait (0.05%) and 2 mM EDTA was used for solutions S1 (C=0.5 ng/ml) and S2 (C=1 ng/ml).
Solutions S3 (C=0.5 ng/ml) and S4 (C=1 ng/ml) were obtained by diluting the “stock” solution with phosphate buffer (KH2PO4/K2HPO4 pH=7.5) containing Kathon (0.2%), Régilait (0.05%) and 2 mM EDTA.
Solutions S1, S2, S3 and S4 were assayed, according to the protocol described in Example 2, on D0 (day of preparation of the solutions). The values obtained served as reference for monitoring stability.
Next, solutions S1, S2, S3 and S4 were stored at +4° C. and assayed periodically. During each series of assays, three “control solutions” were used. They are the freeze-dried troponin I control sera distributed in the assay measuring range. […] During each stability test, it was checked that each of the controls tested was obtained at its target concentration. This therefore made it possible to compare the concentrations obtained for the peptides during the various tests. […]

[2] = type: physicochemical
Protocol: This stability study was validated with the aid of compound 6 stored at -20° C. and used as reference. It was checked beforehand that compound 6 is stable when stored at -20° C. for at least 18 months.

Substance: Ac-Asn Tyr Arg Ala Tyr Ala Thr Glu Pro His Ala Lys Lys Lys Ser Lys Gln Lys Met Gln Ala Met Met Gln Ala Leu Leu Gly Ala Arg Ala Lys Glu-NH2 (Ac-NYRAYATEPHAKKKSKQKMQAMMQALLGARAKE-NH2) [Compound 10, Ia with Ξ = Ac-NYRAYA-, Z = -AKKKSK-(QKMQ)1-AMMQA-, Ψ = -AKE-NH2]
- Stability of the solutions [1]: excellent stability

Substance: Ac-Gly Asn Tyr Arg Ala Tyr Ala Thr Glu Pro His Ala Lys Lys -NH-(CH2)5-CO-Ala Met Met Gln Ala Leu Leu Gly Ala Arg Ala Lys Glu-NH2 [Compound 6]
- Duration stable when stored at −20° C. [2]: at least 18 months
